Experiments:
[1] = target: T1, biotinylated mouse CD40 (Acro Biosystem) (mouse, UniProt P27512 24-193, limits assumed, biotinylated (sites not given)); experiment: SPR (ProteOn XPR36), bio-mCD40 on NLC chip, Protein #5 as analyte
T1 construct: also called Bio-mCD40
T1 sequence (looked up): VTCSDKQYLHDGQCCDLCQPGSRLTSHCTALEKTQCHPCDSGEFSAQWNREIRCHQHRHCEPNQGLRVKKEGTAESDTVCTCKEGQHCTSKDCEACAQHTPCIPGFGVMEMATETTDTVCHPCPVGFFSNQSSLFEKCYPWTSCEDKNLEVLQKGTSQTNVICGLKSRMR
Protocol: (§1) All SPR measurements were performed using a ProteOn XPR36 instrument (BioRad) and a running buffer of PBS pH 7.4 containing 0.005% Tween 20® (PBST). The 1:1 Langmuir model was used for the fitting of SPR traces.
(§2) ProteOn setup for Protein #5 binding to CD40 of different species. CD40 proteins (Acro Biosystem) of different species (human, cynomolgus, mouse) were biotinylated with standard methods known in the art, resulting in bio-hCD40, bio-cCD40 and bio-mCD40 proteins. The bio-hCD40, bio-cCD40 and bio-mCD40 proteins were immobilized on an NLC chip (BioRad) to a level of respectively 300 RU, 250 RU and 300 RU. The interaction of Protein #5 with CD40 was measured by injecting Protein #5 in a serial dilution of 3, 1.5, 0.75, 0.38 and 0.19 nM with an association of 120 s and dissociation of 900 s using a constant flow of 100 μl/min. The measurement was repeated two or three times and the targets were regenerated between the individual measurements using 10 mM glycine pH 2 for 18 s at a flow of 100 μl/min. The signals were double referenced against the running buffer (PBST) treated control lanes.

[2] = target: T2, biotinylated human CD40 (Acro Biosystem) (human, UniProt P25942 21-193, biotinylated (sites not given)); experiment: SPR (ProteOn XPR36), biotinylated CD40 on NLC chip, Protein #5 as analyte, PBST, 1:1 Langmuir
T2 construct: Bought protein; also called Bio-hCD40; hCD40
Protocol: as §1, §2

[3] = target: T3, biotinylated cynomolgus CD40 (Acro Biosystem) (cynomolgus, UniProt G7PG38 21-193, biotinylated (sites not given)); experiment: as above
T3 construct: also called Bio-cCD40
Protocol: as §1, §2

[4] = target: T4, human serum albumin (human, UniProt P02768 25-609); experiment: SPR (ProteOn XPR36), Protein #5 captured on hFAP-coated GLC chip, serum albumin as analyte, PBST
T4 construct: also called HSA
Protocol: as §1
(§3) ProteOn setup for Protein #5 binding to serum albumin of different species. First, human FAP (hFAP) was coated on a GLC chip (BioRad) to a level of 700 RU before 50 nM Protein #5 was immobilized as analyte for 120 s (dissociation of 0 s) at constant flow of 100 μl/min to a level of 120 RU. The binding of the serum albumin to Protein #5 was measured by injecting human serum albumin (HSA), cynomolgus serum albumin (CSA) and mouse serum albumin (MSA) in a serial dilution of 100, 33, 11 and 3.7 nM with an association of 120 s and a dissociation of 600 s at a constant flow of 100 μl/min. HSA, CSA and MSA binding was measured serially and the hFAP/Protein #5 complex was regenerated each time with 10 mM glycine pH2 for 18 s at a flow of 100 μl/min. Thus, Protein #5 had to be re-immobilized on hFAP after each regeneration step. […] The kinetic was calculated on the first 300 s of dissociation.

[5] = target: T5, cynomolgus serum albumin (cynomolgus, UniProt A2V9Z4 25-608); experiment: as above
T5 construct: also called CSA
Protocol: as §1, §3

[6] = target: T6, mouse serum albumin (mouse, UniProt P07724 25-608); experiment: SPR (ProteOn XPR36), Protein #5 captured on hFAP-coated GLC chip, serum albumin as analyte, PBST; flagged as overestimated, inaccurate fit; MSA as analyte; patent flags the fit as inaccurate (Chi^2/Rmax 13.1 %) and the KD as overestimated due to nonspecific binding of MSA on the chip
T6 construct: also called MSA
Protocol: as §1, §3

T2 sequence (P25942 21-193 H80K/K81H limits assumed): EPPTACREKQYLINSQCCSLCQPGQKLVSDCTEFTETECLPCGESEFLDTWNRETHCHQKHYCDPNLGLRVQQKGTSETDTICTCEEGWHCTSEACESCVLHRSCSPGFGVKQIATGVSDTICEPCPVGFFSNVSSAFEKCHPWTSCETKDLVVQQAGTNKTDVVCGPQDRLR
T4 sequence (P02768 25-609 limits assumed): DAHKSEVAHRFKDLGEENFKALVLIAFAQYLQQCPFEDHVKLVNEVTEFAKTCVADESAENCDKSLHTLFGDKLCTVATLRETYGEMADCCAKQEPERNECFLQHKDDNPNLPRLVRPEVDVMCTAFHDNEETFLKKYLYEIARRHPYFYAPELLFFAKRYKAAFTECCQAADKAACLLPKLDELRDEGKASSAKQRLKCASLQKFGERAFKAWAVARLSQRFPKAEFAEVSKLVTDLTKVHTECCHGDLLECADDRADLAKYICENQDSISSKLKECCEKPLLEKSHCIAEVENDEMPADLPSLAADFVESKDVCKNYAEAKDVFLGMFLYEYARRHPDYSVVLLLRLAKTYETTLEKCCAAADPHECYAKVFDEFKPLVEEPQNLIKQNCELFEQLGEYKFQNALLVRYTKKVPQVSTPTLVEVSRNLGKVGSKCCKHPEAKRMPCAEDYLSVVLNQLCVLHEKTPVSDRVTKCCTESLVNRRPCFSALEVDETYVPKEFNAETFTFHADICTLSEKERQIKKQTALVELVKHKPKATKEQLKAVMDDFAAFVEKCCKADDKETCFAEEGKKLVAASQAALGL
T5 sequence (A2V9Z4 25-608 limits assumed): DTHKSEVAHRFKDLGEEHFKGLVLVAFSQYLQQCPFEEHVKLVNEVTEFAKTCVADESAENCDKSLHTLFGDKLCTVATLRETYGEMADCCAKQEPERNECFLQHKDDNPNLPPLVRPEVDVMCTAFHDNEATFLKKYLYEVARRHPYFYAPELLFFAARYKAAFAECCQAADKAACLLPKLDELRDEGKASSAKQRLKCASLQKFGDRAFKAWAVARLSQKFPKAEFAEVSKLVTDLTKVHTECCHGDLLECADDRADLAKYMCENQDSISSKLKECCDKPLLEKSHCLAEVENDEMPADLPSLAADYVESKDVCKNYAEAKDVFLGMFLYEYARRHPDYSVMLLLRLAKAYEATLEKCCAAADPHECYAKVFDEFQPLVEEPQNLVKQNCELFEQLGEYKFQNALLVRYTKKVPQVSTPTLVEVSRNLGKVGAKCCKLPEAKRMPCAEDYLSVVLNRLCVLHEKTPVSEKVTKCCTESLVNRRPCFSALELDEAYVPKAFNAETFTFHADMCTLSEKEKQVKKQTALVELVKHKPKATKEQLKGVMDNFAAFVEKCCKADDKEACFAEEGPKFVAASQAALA

- Kd [2]: 0.103 nM
- koff [2]: 0.00103 s⁻¹
- kon [2]: 1.01e+07 M⁻¹ s⁻¹
- Kd [3]: 0.101 nM
- koff [3]: 0.000824 s⁻¹
- kon [3]: 8.25e+06 M⁻¹ s⁻¹
- Kd [4]: 50 nM
- koff [4]: 0.0179 s⁻¹
- kon [4]: 358000 M⁻¹ s⁻¹
- Kd [5]: 409 nM
- koff [5]: 0.217 s⁻¹
- kon [5]: 532000 M⁻¹ s⁻¹
- Kd [6]: 40 nM
B1: DARPin Protein #5 (designed binder)
chain: GSDLGKKLLEAARAGQDDEVRELLKAGADVNAKDYFSHTPLHLAARNGHLKIVEVLLKAGADVNAKDFAGKTPLHLAAADGHLEIVEVLLKAGADVNAQDIFGKTPADIAADAGHEDIAEVLQKAAGSPTPTPTTPTPTPTTPTPTPTGSDLGKKLLEAARAGQDDEVRILLAAGADVNAKDVLGWTPLHLAAFEGHLEIVEVLLKAGADVNAKDKKGWTPLQLAARTGHLEIVEVLLKAGADVNAKDHIGATPLHLAAWQGHPEIVEVLLKAGADVNAQDKSGKTPADLAADAGHEDIAEVLQKAAGSPTPTPTTPTPTPTTPTPTPTGSDLGKKLLQAARAGQLDEVRELLKAGADVNAKDTWGFTPLHIAAESGHLEIVEVLLKAGADVNAKDVQGRTPLHIAAHSGHLEIVEVLLKAGADVNAKDFRGWTPLHLAAWSGHLEIVEILLKAGADVNAQDKSGKTPADLAARAGHQDIAEVLQKAAGSPTPTPTTPTPTPTTPTPTPTGSDLGKKLLQAARAGQLDEVRELLKAGADVNAKDTWGFTPLHIAAESGHLEIVEVLLKAGADVNAKDVQGRTPLHIAAHSGHLEIVEVLLKAGADVNAKDFRGWTPLHLAAWSGHLEIVEILLKAGADVNAQDKSGKTPADLAARAGHQDIAEVLQKAA
notes: also called SMA136; Molecule No. 1
- binding result [1]: no binding (tested: 3 nM (highest concentration injected))

Source: US20210395318A1 (Molecular Partners, published 2021)
